Source: patent US20220064316A1 (published 2022)

T1: BCMA-Fc antigen (R&D Systems) (UniProt Q02223 1-54)
T1 construct: also called BCMA fc fusion protein (R&D Systems, cat #193-BC-050); recombinant BCMA-Fc; not shown: Fc portion of the bought fusion protein
T1 sequence (looked up): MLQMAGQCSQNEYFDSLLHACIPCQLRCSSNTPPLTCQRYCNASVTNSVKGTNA

T2: human BCMA (B-cell maturation antigen) on cells (human, UniProt Q02223 1-184)
T2 sequence (looked up): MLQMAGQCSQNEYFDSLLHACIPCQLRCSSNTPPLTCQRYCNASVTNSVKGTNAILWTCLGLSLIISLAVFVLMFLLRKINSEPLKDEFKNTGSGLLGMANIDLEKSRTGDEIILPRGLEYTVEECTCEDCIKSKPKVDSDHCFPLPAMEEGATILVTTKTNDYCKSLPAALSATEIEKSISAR

B1: BCMA-9 CAR (139108) (other)
chain: QVQLVESGGGLVKPGGSLRLSCAASGFTFSDYYMSWIRQAPGKGLEWVSYISSSGSTIYYADSVKGRFTISRDNAKNSLYLQMNSLRAEDTAVYYCARESGDGMDVWGQGTTVTVSSASGGGGSGGRASGGGGSDIQMTQSPSSLSASVGDRVTITCRASQSISSYLNWYQQKPGKAPKLLIYAASSLQSGVPSRFSGSGSGTDFTLTISSLQPEDFATYYCQQSYTLAFGQGTKVDIKTTTPAPRPPTPAPTIASQPLSLRPEACRPAAGGAVHTRGLDFACDIYIWAPLAGTCGVLLLSLVITLYCKRGRKKLLYIFKQPFMRPVQTTQEEDGCSCRFPEEEEGGCELRVKFSRSADAPAYKQGQNQLYNELNLGRREEYDVLDKRRGRDPEMGGKPRRKNPQEGLYNELQKDKMAEAYSEIGMKGERRRGKGHDGLYQGLSTATKDTYDALHMQALPPR
notes: also called OG62-93QB
B2: BCMA-12 CAR (139111) (other)
chain: EVQLLESGGGLVQPGGSLRLSCAVSGFALSNHGMSWVRRAPGKGLEWVSGIVYSGSTYYAASVKGRFTISRDNSRNTLYLQMNSLRPEDTAIYYCSAHGGESDVWGQGTTVTVSSASGGGGSGGRASGGGGSDIVMTQTPLSLSVTPGQPASISCKSSQSLLRNDGKTPLYWYLQKAGQPPQLLIYEVSNRFSGVPDRFSGSGSGTDFTLKISRVEAEDVGAYYCMQNIQFPSFGGGTKLEIKTTTPAPRPPTPAPTIASQPLSLRPEACRPAAGGAVHTRGLDFACDIYIWAPLAGTCGVLLLSLVITLYCKRGRKKLLYIFKQPFMRPVQTTQEEDGCSCRFPEEEEGGCELRVKFSRSADAPAYKQGQNQLYNELNLGRREEYDVLDKRRGRDPEMGGKPRRKNPQEGLYNELQKDKMAEAYSEIGMKGERRRGKGHDGLYQGLSTATKDTYDALHMQALPPR
notes: also called HU13-58ZB
B3: BCMA-13 CAR (139112) (other)
chain: QVQLVESGGGLVQPGGSLRLSCAVSGFALSNHGMSWVRRAPGKGLEWVSGIVYSGSTYYAASVKGRFTISRDNSRNTLYLQMNSLRPEDTAIYYCSAHGGESDVWGQGTTVTVSSASGGGGSGGRASGGGGSDIRLTQSPSPLSASVGDRVTITCQASEDINKFLNWYHQTPGKAPKLLIYDASTLQTGVPSRFSGSGSGTDFTLTINSLQPEDIGTYYCQQYESLPLTFGGGTKVEIKTTTPAPRPPTPAPTIASQPLSLRPEACRPAAGGAVHTRGLDFACDIYIWAPLAGTCGVLLLSLVITLYCKRGRKKLLYIFKQPFMRPVQTTQEEDGCSCRFPEEEEGGCELRVKFSRSADAPAYKQGQNQLYNELNLGRREEYDVLDKRRGRDPEMGGKPRRKNPQEGLYNELQKDKMAEAYSEIGMKGERRRGKGHDGLYQGLSTATKDTYDALHMQALPPR
notes: also called B13; KG66-98AB
B4: BCMA-14 CAR (139113) (other)
chain: EVQLVETGGGLVQPGGSLRLSCAVSGFALSNHGMSWVRRAPGKGLEWVSGIVYSGSTYYAASVKGRFTISRDNSRNTLYLQMNSLRPEDTAIYYCSAHGGESDVWGQGTTVTVSSASGGGGSGGRASGGGGSETTLTQSPATLSVSPGERATLSCRASQSVGSNLAWYQQKPGQGPRLLIYGASTRATGIPARFSGSGSGTEFTLTISSLQPEDFAVYYCQQYNDWLPVTFGQGTKVEIKTTTPAPRPPTPAPTIASQPLSLRPEACRPAAGGAVHTRGLDFACDIYIWAPLAGTCGVLLLSLVITLYCKRGRKKLLYIFKQPFMRPVQTTQEEDGCSCRFPEEEEGGCELRVKFSRSADAPAYKQGQNQLYNELNLGRREEYDVLDKRRGRDPEMGGKPRRKNPQEGLYNELQKDKMAEAYSEIGMKGERRRGKGHDGLYQGLSTATKDTYDALHMQALPPR
notes: also called HJ64-62PB
B5: BCMA-15 CAR (139114) (other)
chain: EVQLVESGGGLVQPGGSLRLSCAVSGFALSNHGMSWVRRAPGKGLEWVSGIVYSGSTYYAASVKGRFTISRDNSRNTLYLQMNSLRPEDTAIYYCSAHGGESDVWGQGTTVTVSSASGGGGSGGRASGGGGSEIVLTQSPGTLSLSPGERATLSCRASQSIGSSSLAWYQQKPGQAPRLLMYGASSRASGIPDRFSGSGSGTDFTLTISRLEPEDFAVYYCQQYAGSPPFTFGQGTKVEIKTTTPAPRPPTPAPTIASQPLSLRPEACRPAAGGAVHTRGLDFACDIYIWAPLAGTCGVLLLSLVITLYCKRGRKKLLYIFKQPFMRPVQTTQEEDGCSCRFPEEEEGGCELRVKFSRSADAPAYKQGQNQLYNELNLGRREEYDVLDKRRGRDPEMGGKPRRKNPQEGLYNELQKDKMAEAYSEIGMKGERRRGKGHDGLYQGLSTATKDTYDALHMQALPPR
notes: also called B15; PY43-48LB
B6: BCMA-1 CAR (139100) (other)
chain: QVQLVQSGAEVRKTGASVKVSCKASGYIFDNFGINWVRQAPGQGLEWMGWINPKNNNTNYAQKFQGRVTITADESTNTAYMEVSSLRSEDTAVYYCARGPYYYQSYMDVWGQGTMVTVSSASGGGGSGGRASGGGGSDIVMTQTPLSLPVTPGEPASISCRSSQSLLHSNGYNYLNWYLQKPGQSPQLLIYLGSKRASGVPDRFSGSGSGTDFTLHITRVGAEDVGVYYCMQALQTPYTFGQGTKLEIKTTTPAPRPPTPAPTIASQPLSLRPEACRPAAGGAVHTRGLDFACDIYIWAPLAGTCGVLLLSLVITLYCKRGRKKLLYIFKQPFMRPVQTTQEEDGCSCRFPEEEEGGCELRVKFSRSADAPAYKQGQNQLYNELNLGRREEYDVLDKRRGRDPEMGGKPRRKNPQEGLYNELQKDKMAEAYSEIGMKGERRRGKGHDGLYQGLSTATKDTYDALHMQALPPR
notes: also called ER95-03VA

Biological target: T1, BCMA-Fc antigen (R&D Systems)
Assay: flow cytometry; BCMA-Fc staining of CAR-transduced JNL cells
Method: Jurkat-NFAT-luciferase (JNL) cells transduced with BCMA CAR constructs were evaluated for activation in response to BCMA-expressing target cell lines. Small-scale viral supernatant samples were generated in HEK293T cells for transduction of JNL cells. On Day 3 following transduction, BCMA CAR-transduced JNL cells were incubated with target cells at an effector-to-target (E:T) ratio of 6:1. Target cell lines were: K562-BCMA (engineered to stably express BCMA), K562 (parental line), and BCMA positive multiple myeloma cell lines, NCI-H929 and RPMI 8226. JNL activation was measured using Bright-Glo substrate (Promega) on Day 4. CAR expression on transduced JNL was assessed on Day 7 with BCMA-Fc antigen and Biotin-Protein L reagent (Table 21).

Row | Binder | % CAR+ (BCMA-Fc detection) [%]
1 | B1 | 54.7
2 | B2 | 23.4
3 | B3 | 32.7
4 | B4 | 31.8
5 | B5 | 36.9
6 | B6 | 72.1

Biological target: T2, human BCMA (B-cell maturation antigen) …
Assay: cell-based or functional assay

Row | Binder | JNL binding assay, ratio to K562; K562-BCMA [ratio] | JNL binding assay, ratio to K562; NCI-H929 [ratio] | JNL binding assay, ratio to K562; RPMI 8226 [ratio] | Proliferation CD3, ratio to no target; K562-BCMA [ratio] | Proliferation CD3, ratio to no target; KMS11-luc [ratio] | Proliferation CD3, ratio to no target; NCI-H929 [ratio] | Proliferation CD3, ratio to no target; RPMI 8226 [ratio] | Proliferation CD4, ratio to no target; K562-BCMA [ratio] | Proliferation CD4, ratio to no target; KMS11-luc [ratio] | Proliferation CD4, ratio to no target; NCI-H929 [ratio]
7 | B1 | 1.59 | 1.99 | 1.54 | 1.51 | 1.66 | 4.63 | 2.5 | 1.59 | 1.49 | 4.45
8 | B2 | 3.17 | 2.78 | 3.36 | 2.9 | 2.76 | 2.98 | 3.27 | 3.42 | 2.94 | 3.41
9 | B3 | 3.74 | 2.68 | 3.66 | 3.47 | 3.2 | 3.46 | 3.48 | 5.4 | 3.84 | 5.05
10 | B4 | 2.81 | 2.65 | 3.31 | 4.12 | 3.42 | 3.86 | 3.93 | 5.73 | 3.97 | 5.07
11 | B5 | 2.91 | 2.79 | 3.49 | 3.94 | 3.51 | 4.08 | 3.73 | 4.87 | 3.82 | 4.82
12 | B6 | 4.6 | 4.55 | 5.06 | 1.59 | 1.38 | 4.97 | 2.96 | 1.57 | 1.24 | 5.57

Same assay, conditions: not given

Row | Binder | Proliferation CD4, ratio to no target; RPMI 8226 [ratio] | Proliferation CD8, ratio to no target; K562-BCMA [ratio] | Proliferation CD8, ratio to no target; KMS11-luc [ratio] | Proliferation CD8, ratio to no target; NCI-H929 [ratio] | Proliferation CD8, ratio to no target; RPMI 8226 [ratio]
13 | B1 | 2.24 | 1.43 | 1.83 | 4.79 | 2.76
14 | B2 | 3.66 | 1.51 | 2.11 | 1.76 | 2.12
15 | B3 | 4.44 | 2.34 | 2.79 | 2.53 | 2.86
16 | B4 | 4.84 | 2.65 | 2.83 | 2.73 | 3.03
17 | B5 | 4.24 | 1.89 | 2.73 | 2.42 | 2.51
18 | B6 | 2.43 | 1.61 | 1.56 | 4.14 | 3.58
